According to publication doi:10.1101/2024.09.28.615595:
Read-outs that look alike come from different tables or passages of the source.

Columns and labels:
Assay in all cases: EMSA
CsrA [1] = target: T1, CsrA (Escherichia coli, UniProt P69913 1-61)
CsrA [2] = target: T1, CsrA; remark: listed apart in the source
CsrA [3] = target: T1, CsrA; remark: listed apart in the source

T1 sequence (P69913 whole entry): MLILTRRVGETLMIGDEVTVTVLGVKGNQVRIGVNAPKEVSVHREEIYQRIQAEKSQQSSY

B1: uxuB leader wild type (ssRNA)
RNA: GGGAUAAUGCGCUUUCUUUAGCCGUUAAUAUCCACCGGCAUGGCUGCGCGCCGUGCCGGUUCCUUCUUCCUUGCCGUCACUCUUUGAAGACGGAUUCUGGAGUUUACGAUGACUACUAUUGUUGACAGCAAUCUGCCGGUUGCCCGCCCGUCAUGGGAUCAUUCUCGUCUGGAAUCACGCAUUGUGCAUCUCGGUUGCGGGGCGUUUC
B1 was tested, and the Kd (CsrA [1]) was about 83.2 nM.

B2: uxuB CDS mutant (DOWNSTR mut) (ssRNA)
RNA: GGGAUAAUGCGCUUUCUUUAGCCGUUAAUAUCCACCGGCAUGGCUGCGCGCCGUGCCGGUUCCUUCUUCCUUGCCGUCACUCUUUGAAGACGGAUUCUGGAGUUUACGAUGACUACUAUUGUUGACAGCAAUCUGCCGGUUGCCCGCCCGUCAUUUGAUCAUUCUCGUCUGCAAUCACGCAUUGUGCAUCUAGGUUGCGGGGCGUUUCGCAUGC
With B2 the “apparent K (half saturation)” value (CsrA [1]) was about 158 nM.

B3: uxuB no GGAs mutant (ssRNA)
RNA: GGGAUAAUGCGCUUUCUUUAGCCGUUAAUAUCCACCGGCAUGGCUGCGCGCCGUGCCGGUUCCUUCUUGCUUGGCGUCACUCUUUGAAGACGCAUUCUGCAGUUUACGAUGACUACUAUUGUUGACAGCAAUCUGCCGGUUGCCCGCCCGUCAUUUGAUCAUUCUCGUCUGCAAUCACGCAUUGUGCAUCUAGGUUGCGGGGCGUUUCGCAUGC
For B3, the “apparent K (half saturation)” value (CsrA [1]) was about 193 nM.

B4: uxuB CDS truncation wild type (ssRNA)
RNA: GGGAUAAUAUGACUACUAUUGUUGACAGCAAUCUGCCGGUUGCCCGCCCGUCAUGGGAUCAUUCUCGUCUGGAAUCACGCAUUGUGCAUCUCGGUUGCGGGGCGUUUC
Work on B4 yielded a Kd (CsrA [2]) of about 164 nM.

B5: uxuB 5' UTR truncation mutant (ssRNA)
RNA: GGGAUAAUGCGCUUUCUUUAGCCGUUAAUAUCCACCGGCAUGGCUGCGCGCCGUGCCGGUUCCUUCUUGCUUGGCGUCACUCUUUGAAGACGCAUUCUGCAGUUUACGA
B5: no binding (CsrA [3]).
